Kd data for 30 molecules are collected here from publication PMC10786891, “Massively parallel profiling of RNA-targeting CRISPR-Cas13d”.

The labels stand for the following.
T1: EsCas13d, nuclease-dead (Eubacterium siraeum, UniProt B0MS50, R295A;H300A;R849A;H854A)
T1 sequence: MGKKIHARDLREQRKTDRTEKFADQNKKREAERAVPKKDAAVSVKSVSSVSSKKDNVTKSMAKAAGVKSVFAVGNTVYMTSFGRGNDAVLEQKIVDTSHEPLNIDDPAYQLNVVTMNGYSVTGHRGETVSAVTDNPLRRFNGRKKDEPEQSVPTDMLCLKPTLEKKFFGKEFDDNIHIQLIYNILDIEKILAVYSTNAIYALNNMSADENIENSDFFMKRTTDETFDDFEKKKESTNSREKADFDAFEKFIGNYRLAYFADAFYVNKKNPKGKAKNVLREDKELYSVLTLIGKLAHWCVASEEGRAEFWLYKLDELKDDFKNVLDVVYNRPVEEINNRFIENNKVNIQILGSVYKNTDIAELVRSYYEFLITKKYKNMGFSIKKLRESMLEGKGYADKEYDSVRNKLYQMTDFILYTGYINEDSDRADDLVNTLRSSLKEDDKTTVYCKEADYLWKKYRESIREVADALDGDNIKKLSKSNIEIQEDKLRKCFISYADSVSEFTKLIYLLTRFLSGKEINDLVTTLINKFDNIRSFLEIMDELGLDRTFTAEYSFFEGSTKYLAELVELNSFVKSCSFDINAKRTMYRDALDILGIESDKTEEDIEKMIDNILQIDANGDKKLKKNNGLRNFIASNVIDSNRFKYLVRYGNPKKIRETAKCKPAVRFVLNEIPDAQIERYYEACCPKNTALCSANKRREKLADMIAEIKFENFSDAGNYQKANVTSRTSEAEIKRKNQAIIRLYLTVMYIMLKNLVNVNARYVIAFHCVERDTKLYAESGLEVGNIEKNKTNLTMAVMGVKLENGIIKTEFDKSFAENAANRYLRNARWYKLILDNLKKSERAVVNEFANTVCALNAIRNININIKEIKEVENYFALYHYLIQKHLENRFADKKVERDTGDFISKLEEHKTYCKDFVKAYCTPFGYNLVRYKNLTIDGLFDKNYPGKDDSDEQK

B1: target 1 C6G,C22A (mixed)
RNA 1: CACCCGUGCAAAAAUGCAGGGGUCUAAAACUGAGCGGAUAACCUCUCUAUGG
RNA 2: GGGAAUGGAUCCACAUCUACGAAUUCGUAACAUAGAGAGGUUAUCGGCUCACCGAGAUCGGAAGAGCACACGU
B2: target 1 A1U,U8A (mixed)
RNA 1: B1 RNA 1
RNA 2: B1 RNA 2 with A30C, U44A, G46C, A51U
B3: target 1 A9G,A18U (mixed)
RNA 1: B1 RNA 1
RNA 2: B1 RNA 2 with A30C, A34U, A43G, G46C
B4: target 3 insU 3' of 16,insU 3' of 4 (mixed)
RNA 1: CACCCGUGCAAAAUUGCAGGGGUCUAAAACGACCUGAAUAUUUCAGAUCAAA
RNA 2: GGGAAUGGAUCCACAUCUACGAAUUCGUUUUUGAUCUUGAAAUAUUCAGUGUCUGCAGAUCGGAAGAGCACACGU
B5: target 3 insC 3' of 9,insG 3' of 8 (mixed)
RNA 1: B4 RNA 1
RNA 2: GGGAAUGGAUCCACAUCUACGAAUUCGUUUUUGAUCUGAAAUACUGUCAGGUCUGCAGAUCGGAAGAGCACACGU
B6: target 3 insA 3' of 7,insC 3' of 7 (mixed)
RNA 1: B4 RNA 1
RNA 2: B5 RNA 2 with C44U, G46A, U47C
B7: target 3 A12G,U22C (mixed)
RNA 1: B4 RNA 1
RNA 2: GGGAAUGGAUCCACAUCUACGAAUUCGUUCUUGAUCUGAGAUAUUCAGGUCUGCAGAUCGGAAGAGCACACGU
B8: target 3 insU 3' of 4,insG 3' of 1 (mixed)
RNA 1: B4 RNA 1
RNA 2: B5 RNA 2 with C44U, G46C, U47A, C48G, A49U, G51U, U52C, C53G
B9: target 3 insG 3' of 7,insA 3' of 7 (mixed)
RNA 1: B4 RNA 1
RNA 2: B5 RNA 2 with C44U, U47A
B10: target 3 insU 3' of 22,insC 3' of 9 (mixed)
RNA 1: B4 RNA 1
RNA 2: GGGAAUGGAUCCACAUCUACGAAUUCGUUUUUUGAUCUGAAAUACUUCAGGUCUGCAGAUCGGAAGAGCACACGU
B11: target 3 insU 3' of 4,insC 3' of 4 (mixed)
RNA 1: B4 RNA 1
RNA 2: B5 RNA 2 with C44U, G46C, U47A, C48G, A49U, G50C
B12: target 3 insG 3' of 6,insA 3' of 4 (mixed)
RNA 1: B4 RNA 1
RNA 2: B5 RNA 2 with C44U, G46C, U47G, C48A, A49G, G50A
B13: target 3 insC 3' of 8,insC 3' of 7 (mixed)
RNA 1: B4 RNA 1
RNA 2: B5 RNA 2 with C44U, U45C, G46U, U47C
B14: target 3 insA 3' of 21 (mixed)
RNA 1: B4 RNA 1
RNA 2: GGGAAUGGAUCCACAUCUACGAAUUCGUUUUAUGAUCUGAAAUAUUCAGGUCUGCAGAUCGGAAGAGCACACGU
B15: target 3 insA 3' of 7,insU 3' of 5 (mixed)
RNA 1: B4 RNA 1
RNA 2: B5 RNA 2 with C44U, G46A, U47C, C48A, A49U
B16: target 3 insA 3' of 21,insU 3' of 4 (mixed)
RNA 1: B4 RNA 1
RNA 2: B4 RNA 2 with U32A, G33U, A34G, U35A, C36U, U37C
B17: target 3 insC 3' of 22,insU 3' of 3 (mixed)
RNA 1: B4 RNA 1
RNA 2: B10 RNA 2 with U31C, C45U, U47C, C48A, A49G, G51U
B18: target 3 G4C,A12C (mixed)
RNA 1: B4 RNA 1
RNA 2: B7 RNA 2 with C30U, G40C, G48C
B19: target 3 insC 3' of 7,insA 3' of 4 (mixed)
RNA 1: B4 RNA 1
RNA 2: B5 RNA 2 with C44U, G46C, U47C, C48A, A49G, G50A
B20: target 3 insC 3' of 5,insA 3' of 4 (mixed)
RNA 1: B4 RNA 1
RNA 2: B5 RNA 2 with C44U, G46C, U47A, A49G, G50A
B21: target 3 complement block 4-9 (mixed)
RNA 1: B4 RNA 1
RNA 2: B7 RNA 2 with C30U, G40A, A43U, U44A, U45A, C46G, A47U, G48C
B22: target 3 U2G,U21C (mixed)
RNA 1: B4 RNA 1
RNA 2: B7 RNA 2 with C30U, U31C, G40A, U50G
B23: target 3 insA 3' of 22,insC 3' of 5 (mixed)
RNA 1: B4 RNA 1
RNA 2: B10 RNA 2 with U31A, C45U, U47C, C48A, A49C
B24: target 3 insU 3' of 14,insU 3' of 5 (mixed)
RNA 1: B4 RNA 1
RNA 2: B4 RNA 2 with U38G, G39U, G49U, U50G
B25: target 3 U8C (mixed)
RNA 1: B4 RNA 1
RNA 2: B7 RNA 2 with C30U, G40A, U44C
B26: target 3 complement block 5-8 (mixed)
RNA 1: B4 RNA 1
RNA 2: B7 RNA 2 with C30U, G40A, U44A, U45A, C46G, A47U
B27: target 3 insG 3' of 8,insA 3' of 7 (mixed)
RNA 1: B4 RNA 1
RNA 2: B5 RNA 2 with C44U, U45G, G46U, U47A
B28: target 3 insA 3' of 7,insA 3' of 2 (mixed)
RNA 1: B4 RNA 1
RNA 2: B5 RNA 2 with C44U, G46A, U47C, C48A, A49G, G51U, U52A
B29: target 3 U8G (mixed)
RNA 1: B4 RNA 1
RNA 2: B7 RNA 2 with C30U, G40A, U44G
B30: target 3 insC 3' of 19,insU 3' of 5 (mixed)
RNA 1: B4 RNA 1
RNA 2: B4 RNA 2 with A34C, U35A, C36U, U37C, G49U, U50G

Residue numbers refer to the chain shown, from its start. Names may count otherwise.

In the series the target is T1, EsCas13d, nuclease-dead. Briefly: crRNA (strand 1, pre-loaded); Mg2+; 40 mM Tris-HCl pH 7.5, 150 mM NaCl, 6 mM MgCl2, 1 mM DTT, 0.1% Tween-20, 0.2 mg/ml BSA; 25 C; 10 min per concentration, then washed. Conditions: tags: His6-TwinStrep-SUMO cleaved; N-terminal SNAP kept (SNAP-Surface 488); label: 3' end held by stalled T7 RNA polymerase.
The term Kd denotes the constant that tells how readily two partners part at equilibrium. Molecule B1 came in with a Kd of 14.7 ± 1 nM. Molecule B2 came in with an equilibrium dissociation constant (Kd) of 26.7 ± 1.3 nM. Compared with the last molecule, the Kd is about 1.8-fold higher. The same measure for B3: 39.7 ± 3.1 nM; for B4: 37 ± 7 nM.

In the case of B5, the affinity, expressed as Kd, was 82.5 ± 12.5 nM. The same measure for B6: 48 ± 5.5 nM; for B7: 40.5 ± 8.5 nM. B8 showed a dissociation constant Kd of 43 ± 11.5 nM. As for B9, the figure is 39.5 ± 5 nM; as for B10, 82.5 ± 21.5 nM. As for B11, the figure is 19.5 ± 2.5 nM; as for B12, 12.3 ± 1.1 nM. B13: the Kd amounted to 77.5 ± 16 nM.

For B14, the Kd is 33.5 ± 4.5 nM. Consider B15, for which binding was characterised by a dissociation constant (Kd) of 15.7 ± 1.3 nM. B16 showed a dissociation constant Kd of 11.9 ± 2.1 nM. As for B17, the Kd is 58 ± 10 nM. As for B18, the figure is 95 ± 30 nM; as for B19, 97 ± 35 nM; as for B20, 9.8 ± 0.9 nM. The same measure for B21: 67.5 ± 18 nM; for B22: 60 ± 24.5 nM; for B23: 24.9 ± 3.35 nM.

Turning to B24, the affinity, expressed as Kd, was 83.5 ± 33.5 nM.

Turning to B25, the Kd was 30.4 ± 2.25 nM. The same measure for B26: 60.5 ± 6 nM; for B27: 42 ± 6 nM. The same measure for B28: 51 ± 8 nM; for B29: 45 ± 6 nM. As for B30, the figure is 130 ± 40 nM.
